Where a chain is given by its changes, count along the chain named. Numbers in names are those of the source.
Tests used:
[1] = system: Nc1nc2c(ncn2[C@@H]2O[C@H](CO)[C@@H](O)[C@H]2O)c(=O)[nH]1; test: Km for inosine and guanosine, transphosphorylation by EA-AP mutant of pENP410; assay type: biochemical, Enterobacter aerogenes IFO12010; details: other: transphosphorylation, 100 μmol/ml sodium pyrophosphate, pH 4.0, 30° C., 10 min, cell free extract, Hanes-Woolf
Text: (§1) The mutations were introduced into the plasmid DNA by using Quick Change site-directed mutagenesis kit produced by Stratagene. Twenty kinds of oligonucleotides (Table 12) for introduction of mutation from MUT180 (SEQ ID NO: 101) to […] (SEQ ID NO: 120) were synthesized by using a DNA synthesizer (Model 394 produced by Applied Biosystem). The mutations were introduced according to the protocol of Stratagene by using pENP170 as the first template and MUT180 and MUT181 as oligonucleotides for introduction of mutation.
(§2) By using a plasmid introduced with a mutation as a new template, the same procedure was repeated to cumulatively introduce site-specific mutations. Plasmids were prepared from the transformants by the alkali lysis method, and their nucleotide sequences were determined to confirm that the target nucleotides were replaced. […]
(§3) Escherichia coli JM109/pENP180, Escherichia coli JM109/pENP320, Escherichia coli JM109/pENP340, Escherichia coli JM109/pENP410, Escherichia coli JM109/pENP510 and Escherichia coli JM109/pENP520, which were introduced with a plasmid containing each mutant acid phosphatase gene, were each inoculated to 50 ml of L medium containing 100 µg/ml of ampicillin and 1 mM of IPTG, and cultured at 37° C. for 16 hours. […] Km values for inosine and guanosine in the transphosphorylation reaction were measured by using each cell free extract. […]

[2] = system: OC[C@H]1O[C@@H](n2cnc3c(O)ncnc32)[C@H](O)[C@@H]1O; test: as above; assay type: biochemical, Enterobacter aerogenes IFO12010; details: other: transphosphorylation, 100 μmol/ml sodium pyrophosphate, pH 4.0, 30° C., 10 min, cell free extract, Hanes-Woolf
Text: as §1, §2, §3

[3] = system: Nc1nc2c(ncn2[C@@H]2O[C@H](CO)[C@@H](O)[C@H]2O)c(=O)[nH]1; test: Km for inosine and guanosine, transphosphorylation by EA-AP mutant of pENP320; assay type: biochemical, Enterobacter aerogenes IFO12010; details: other: transphosphorylation, 100 μmol/ml sodium pyrophosphate, pH 4.0, 30° C., 10 min, cell free extract, Hanes-Woolf
Text: as §1, §2, §3

[4] = system: OC[C@H]1O[C@@H](n2cnc3c(O)ncnc32)[C@H](O)[C@@H]1O; test: as above; assay type: biochemical, Enterobacter aerogenes IFO12010; details: other: transphosphorylation, 100 μmol/ml sodium pyrophosphate, pH 4.0, 30° C., 10 min, cell free extract, Hanes-Woolf
Text: as §1, §2, §3

[5] = system: Nc1nc2c(ncn2[C@@H]2O[C@H](CO)[C@@H](O)[C@H]2O)c(=O)[nH]1; test: Km for inosine and guanosine, transphosphorylation by EA-AP mutant of pENP510; assay type: biochemical, Enterobacter aerogenes IFO12010; details: other: transphosphorylation, 100 μmol/ml sodium pyrophosphate, pH 4.0, 30° C., 10 min, cell free extract, Hanes-Woolf
Text: as §1, §2, §3

[6] = system: OC[C@H]1O[C@@H](n2cnc3c(O)ncnc32)[C@H](O)[C@@H]1O; test: as above; assay type: biochemical, Enterobacter aerogenes IFO12010; details: other: transphosphorylation, 100 μmol/ml sodium pyrophosphate, pH 4.0, 30° C., 10 min, cell free extract, Hanes-Woolf
Text: as §1, §2, §3

[7] = system: Nc1nc2c(ncn2[C@@H]2O[C@H](CO)[C@@H](O)[C@H]2O)c(=O)[nH]1; test: Km for inosine and guanosine, transphosphorylation by EA-AP mutant of pENP340; assay type: biochemical, Enterobacter aerogenes IFO12010; details: other: transphosphorylation, 100 μmol/ml sodium pyrophosphate, pH 4.0, 30° C., 10 min, cell free extract, Hanes-Woolf
Text: as §1, §2, §3

[8] = system: OC[C@H]1O[C@@H](n2cnc3c(O)ncnc32)[C@H](O)[C@@H]1O; test: as above; assay type: biochemical, Enterobacter aerogenes IFO12010; details: other: transphosphorylation, 100 μmol/ml sodium pyrophosphate, pH 4.0, 30° C., 10 min, cell free extract, Hanes-Woolf
Text: as §1, §2, §3

[9] = system: Nc1nc2c(ncn2[C@@H]2O[C@H](CO)[C@@H](O)[C@H]2O)c(=O)[nH]1; test: Km for inosine and guanosine, transphosphorylation by EA-AP mutant of pENP180 (parent); assay type: biochemical, Enterobacter aerogenes IFO12010; details: other: transphosphorylation, 100 μmol/ml sodium pyrophosphate, pH 4.0, 30° C., 10 min, cell free extract, Hanes-Woolf
Protocol: (§4) As a gene for introducing a mutation, a plasmid pENP170 that contained a mutant EA-AP gene coding for L61Q/A63Q/E64A/N67D/S69A/G72D/T133K/E134D/I151T mutant EA-AP was used. pENP170 was prepared as follows.
(§5) As described above, a mutant gene was constructed, in which the nucleotide sequence of −10 region of the deduced promoter sequence located upstream from the coding region of the deduced acid phosphatase derived from Enterobacter aerogenes IFO12010 was changed from AAAAAT to TATAAT, which was the same as lac promoter of Escherichia coli. The plasmid containing this mutant gene was designated as pENP180.
as §3, with “hours. The cells were suspended in 50 mL of 100 mM potassium phosphate buffer (pH 7.0), and disrupted by sonication at 4° C. for 20 minutes.[…]” for “hours.”

[10] = system: OC[C@H]1O[C@@H](n2cnc3c(O)ncnc32)[C@H](O)[C@@H]1O; test: as above; assay type: biochemical, Enterobacter aerogenes IFO12010; details: other: transphosphorylation, 100 μmol/ml sodium pyrophosphate, pH 4.0, 30° C., 10 min, cell free extract, Hanes-Woolf
Protocol: as §4, §5
as §3, with “hours. The cells were suspended in 50 mL of 100 mM potassium phosphate buffer (pH 7.0), and disrupted by sonication at 4° C. for 20 minutes.[…]” for “hours.”

[11] = system: Nc1nc2c(ncn2[C@@H]2O[C@H](CO)[C@@H](O)[C@H]2O)c(=O)[nH]1; test: Km for inosine and guanosine, transphosphorylation by EA-AP mutant of pENP520; assay type: biochemical, Enterobacter aerogenes IFO12010; details: other: transphosphorylation, 100 μmol/ml sodium pyrophosphate, pH 4.0, 30° C., 10 min, cell free extract, Hanes-Woolf
Text: as §1, §2, §3

[12] = system: OC[C@H]1O[C@@H](n2cnc3c(O)ncnc32)[C@H](O)[C@@H]1O; test: as above; assay type: biochemical, Enterobacter aerogenes IFO12010; details: other: transphosphorylation, 100 μmol/ml sodium pyrophosphate, pH 4.0, 30° C., 10 min, cell free extract, Hanes-Woolf
Text: as §1, §2, §3

[13] = substrate: OC[C@H]1O[C@@H](n2cnc3c(O)ncnc32)[C@H](O)[C@@H]1O; test: Km for inosine, transphosphorylation by A72E/10-residue replaced mutant EB-AP; assay type: biochemical, Escherichia blattae; details: other: transphosphorylation, 100 mM sodium pyrophosphate, 10–100 mM inosine, pH 4, 30° C., 10 min, cell free extract, Hanes-Woolf
Protocol: Then, the Km value for inosine in the transphosphorylation reaction by each 3-residue replaced mutant EB-AP was measured under the following conditions. A reaction mixture (1 ml) containing 100 mM sodium pyrophosphate, 100 mM acetate buffer (pH 4.0), 10–100 mM inosine and 100 μl of the cell free extract was incubated at pH 4 and 30° C. for 10 minutes. After 200 μl of 1 N hydrochloric acid was added to stop the reaction, the precipitates were removed by centrifugation, and the produced 5′-inosinic acid was quantified. The Km value was calculated by the Hanes-Woolf plotting.
5′-Inosinic acid was analyzed by high performance liquid chromatography (HPLC) under the following conditions. • Column: Cosmosil 5C18-AR (4.6×150 mm), produced by Nakarai Tesque • Mobile phase: 5 mM potassium phosphate buffer (pH 2.8)/methanol=95/5 • Flow rate: 1.0 ml/min • Temperature: room temperature • Detection: UV 245 nm
The S72F mutation that decreased the Km value in the highest degree and the S72E mutation that enhanced the activity in the highest degree in Example 12 were introduced into the 10-residue replaced mutant EB-AP. Since Ser72 was replaced with Ala in the 10-residue replaced mutant EB-AP, the A72F and A72E mutations were actually introduced. […] Furthermore, transphosphorylation activity and reaction rate constant were measured by the method described in Example 12. […]

[14] = substrate: OC[C@H]1O[C@@H](n2cnc3c(O)ncnc32)[C@H](O)[C@@H]1O; test: Km for inosine, transphosphorylation by A72E/L140K/10-residue replaced mutant EB-AP; assay type: biochemical, Escherichia blattae; details: other: transphosphorylation, 100 mM sodium pyrophosphate, 10–100 mM inosine, pH 4, 30° C., 10 min, cell free extract, Hanes-Woolf
[15] = substrate: OC[C@H]1O[C@@H](n2cnc3c(O)ncnc32)[C@H](O)[C@@H]1O; test: Km for inosine, transphosphorylation by A72E/L140F/10-residue replaced mutant EB-AP; assay type: biochemical, Escherichia blattae; details: other: transphosphorylation, 100 mM sodium pyrophosphate, 10–100 mM inosine, pH 4, 30° C., 10 min, cell free extract, Hanes-Woolf

Enterobacter aerogenes IFO12010 acid phosphatase (EA-AP) mutant encoded by pENP410, L61Q/A63Q/E64A/N67D/S69A/A70V/G72D/T133K/E134D/T149A/I151S (parent SEQ ID NO: 10) (Klebsiella aerogenes KCTC 2190; A83Q/A90V/E154D/E84A/G92D/I171S/L81Q/N87D/S89A/T153K/T169A)
Km [1]: 4.9 mM
Km [2]: 18 mM

Enterobacter aerogenes IFO12010 acid phosphatase (EA-AP) mutant encoded by pENP320, L61Q/A63Q/E64A/N67D/S69A/A70V/G72D/E102L/T133K/E134D/T149S/I151S (parent SEQ ID NO: 10) (Klebsiella aerogenes KCTC 2190; A83Q/A90V/E122L/E154D/E84A/G92D/I171S/L81Q/N87D/S89A/T153K/T169S)
Km [3]: 4.6 mM
Km [4]: 19 mM

Enterobacter aerogenes IFO12010 acid phosphatase (EA-AP) mutant encoded by pENP510, L61Q/A63Q/E64A/N67D/S69A/A70E/G72D/T133K/E134D/T149G/I151S (parent SEQ ID NO: 10) (Klebsiella aerogenes KCTC 2190; A83Q/A90E/E154D/E84A/G92D/I171S/L81Q/N87D/S89A/T153K/T169G)
Km [5]: 4.0 mM
Km [6]: 17 mM

Enterobacter aerogenes IFO12010 acid phosphatase (EA-AP) mutant encoded by pENP340, L61Q/A63Q/E64A/N67D/S69A/A70V/G72D/E102Q/T133K/E134D/T149S/I151S as printed in Table 13 (parent SEQ ID NO: 10) (Klebsiella aerogenes KCTC 2190; A83Q/A90V/E122Q/E154D/E84A/G92D/I171S/L81Q/N87D/S89A/T153K/T169S)
Km [7]: 5.1 mM
Km [8]: 19 mM

Enterobacter aerogenes IFO12010 acid phosphatase (EA-AP) mutant encoded by pENP180, L61Q/A63Q/E64A/N67D/S69A/G72D/T133K/E134D/I151T, SEQ ID NO: 10 (Klebsiella aerogenes KCTC 2190; A83Q/E154D/E84A/G92D/I171T/L81Q/N87D/S89A/T153K)
Km [9]: 40 mM
Km [10]: 40 mM

Enterobacter aerogenes IFO12010 acid phosphatase (EA-AP) mutant encoded by pENP520, L61Q/A63Q/E64A/N67D/S69A/A70K/G72D/T133K/E134D/T149G/I151S (parent SEQ ID NO: 10) (Klebsiella aerogenes KCTC 2190; A83Q/A90K/E154D/E84A/G92D/I171S/L81Q/N87D/S89A/T153K/T169G)
Km [11]: 4.4 mM
Km [12]: 46 mM

B1: Escherichia blattae acid phosphatase (EB-AP, SEQ ID NO: 2 / 124) mutant A72E/10-residue replaced (L63Q/A65Q/E66A/N69D/S71A/S72A/G74D/T135K/E136D/I153T with … (protein)
chain: LVATGNDTTTKPDLYYLKNSEAINSLALLPPPPAVGSIAFLNDQAMYEQGRLLRNTERGKQAQADADLAEGDVANAFSGAFGSPITEKDAPALHKLLTNMIEDAGDLATRSAKDHYMRIRPFAFYGVSTCNTKDQDKLSKNGSYPSGHTSTGWATALVLAEINPQRQNEILKRGYELGQSRVICGYHWQSDVDAARVVGSAVVATLHTNPAFQQQLQKAKAEFAQHQKK
Km [13]: 15 mM

B2: Escherichia blattae acid phosphatase (EB-AP, SEQ ID NO: 2 / 124) mutant A72E/L140K/10-residue replaced (L63Q/A65Q/E66A/N69D/S71A/S72A/G74D/T135K/E136D/I153T … (protein)
chain: B1 chain with L138K
Km [14]: 78 mM

B3: Escherichia blattae acid phosphatase (EB-AP, SEQ ID NO: 2 / 124) mutant A72E/L140F/10-residue replaced (L63Q/A65Q/E66A/N69D/S71A/S72A/G74D/T135K/E136D/I153T … (protein)
chain: B1 chain with L138F
Km [15]: 9 mM

Source: US6987008B1, “Variant nucleoside-5′-phosphate producing enzyme” (priority 1999, dated 2006)
